Article PMC3148853

Tests used:
[1] = target: Neto1-ΔCUB2-HA (UniProt Q8R4I7); experiment: co-IP
[2] = target: Neto2-ΔCUB2-HA (UniProt Q8BNJ6); experiment: co-IP

amount of GluK2 co-immunoprecipitated, percent of full length Neto1 [1]: 39% | amount of GluK2 co-immunoprecipitated, percent of full length Neto2 [2]: 33%
Substance: FLAG-GluK2 (from UniProt P42260 32-908) (receptor)
